# “And” between values parts separate entries of the source, which are not always exact repeats. Equal entries are not always repeated.
# B1: Tubulin--tyrosine ligase wild type, P38584 (protein)
# chain: MYTFVVRDENSSVYAEVSRLLLATGHWKRLRRDNPRFNLMLGERNRLPFGRLGHEPGLMQLVNYYRGADKLCRKASLVKLIKTSPELAESCTWFPESYVIYPTNLKTPVAPAQDGIHPPLHSSRTDEREFFLASYNRKKEEGEGNVWIAKSSAGAKGEGILISSDATELLDFIDNQGQVHVIQKYLERPLLLEPGHRKFDIRSWVLVDHQFNIYLYREGVLRTASEPYHMDNFQDKTCHLTNHCIQKEYSKNYGKYEEGNEMFFEAFNRYLTSALNITLESSILLQIKHIIRSCLMSVEPAISTKHLPYQSFQLFGFDFMVDEELKVWLIEVNGAPACAQKLYAELCQGIVDIAIASVFPPPDAEQQPPQPATFIKL
# Conditions: Bos taurus, pH 7, Thermal, DSC, phosphate 10 mM, transition: 3, reversible: no, whole UniProt chain shown
protein,measurement,setting,value
B1,Tm,Mg++ 30 nM,51.1 °C
same,unfolding enthalpy (calorimetric),Mg++ 30 nM,160 kcal/mol
same,unfolding enthalpy (calorimetric),Mg++ 35 nM,38 kcal/mol and 84 kcal/mol
same,unfolding enthalpy (calorimetric),Mg++ 40 nM,31 kcal/mol and 84 kcal/mol
same,Tm,Mg++ 182 nM,49.9 °C
same,unfolding enthalpy (calorimetric),Mg++ 182 nM,158 kcal/mol
same,Tm,Mg++ 2.3 micro M,54.6 °C
same,unfolding enthalpy (calorimetric),Mg++ 2.3 micro M,173 kcal/mol
same,Tm,Mg++ 4.5 micro M,54.8 °C
same,unfolding enthalpy (calorimetric),Mg++ 4.5 micro M,173 kcal/mol
same,Tm,Mg++ 160 micro M,55.8 °C
same,unfolding enthalpy (calorimetric),Mg++ 160 micro M,150 kcal/mol
same,Tm,Mg++ 280 micro M,55.6 °C and 54.2 °C
same,unfolding enthalpy (calorimetric),Mg++ 280 micro M,186 kcal/mol and 200 kcal/mol

# Reference: FireProtDB (doi:10.1074/jbc.273.1.167)
